The target in assay [1] is T1, hEGFR ECR-His6-Avi-Biotin (human, UniProt P00533 25-642, biotinylated on the Avi tag using BirA ligase).
T1 construct: also called WT hEGFR ECR; human EGFR ECD; not shown: His6-Avi tag
Description: phage ELISA: biotinylated hEGFR ECR captured on streptavidin plate, phage display scFv titrated, anti-M13-HRP; pH 6.0.

In assay [2] the target is T1, hEGFR ECR-His6-Avi-Biotin. Description: IgG1 ELISA on hEGFR ECR, pH 6.5 and pH 7.4.
For assay [3], the target named is T1, hEGFR ECR-His6-Avi-Biotin. Description: ELISA: hEGFR ECR on plate, IgG1 titrated, anti-hFc-HRP; pH 6.5 [table].
The target in assay [4] is T1, hEGFR ECR-His6-Avi-Biotin. Description: ELISA: hEGFR ECR on plate, IgG1 titrated, anti-hFc-HRP; pH 7.4 [table].
The target in assay [5] is T1, hEGFR ECR-His6-Avi-Biotin. Description: phage ELISA: hEGFR ECR on plate, phage display Fab titrated, anti-M13-HRP; EC50 at pH 7.4 over EC50 at pH 6.5 [table].
The target of assay [6] is T2, human EGFR, full-length, on A-431 cells or CT26-hEGFR cells (human, UniProt P00533 25-1210).
T2 construct: A-431 cells (own EGFR) and mouse CT26 cells transfected with human EGFR; the cell line is named under assay
Description: flow cytometry on A-431 cells.
Description: (§1) Antibody binding to cells was then assessed based on the fluorescence intensity for FITC.

Assay [7] has as its target T2, human EGFR, full-length, on A-431 cells …. Description: flow cytometry on CT26-hEGFR cells.
Description: as §1
The target is the same in assay [8]. Description: flow cytometry on A-431 cells, pH 6.5.
Description: as §1
The target is the same in assay [9]. Description: flow cytometry on A-431 cells, pH 7.4.
Description: as §1
Assay [10] shares this target. Description: flow cytometry on CT26-hEGFR cells, pH 6.5.
Description: as §1
Assay [11] has the same target. Description: flow cytometry on CT26-hEGFR cells, pH 7.4.
Description: as §1
For assay [12], the target named is T1, hEGFR ECR-His6-Avi-Biotin. Description: SPR (Biacore T200), hEGFR ECR analyte, steady-state affinity model.
Description: (§2) Kinetics analyses of the binding of anti-EGFR antibodies to the ECR of mouse and human EGFR were performed on a Biacore T200 instrument (Biacore, GE Healthcare). Anti-hFc Ab or protein A/G (Thermo Fisher Scientific) was covalently attached to the surface of a CM5 sensor chip using an amine coupling kit (GE Healthcare). […] Binding kinetics were evaluated using a 1:1 Langmuir binding model. The dissociation constant (KD) values were calculated with a steady-state affinity model using the Biacore T200 evaluation software.
In assay [13] the target is T3, mEGFR ECR (His6-Avi-tagged) (mouse, UniProt Q01279 25-644).
T3 construct: also called mouse EGFR; not shown: His6-Avi tag
Description: SPR (Biacore T200), mEGFR ECR analyte, steady-state affinity model.

Assay [14] addresses T1, hEGFR ECR-His6-Avi-Biotin. Description: SPR (Biacore T200), antibody captured, hEGFR ECR analyte, steady-state affinity model, pH 6.5.
Description: as §2
The target in assay [15] is T1, hEGFR ECR-His6-Avi-Biotin. Description: SPR (Biacore T200), antibody captured, hEGFR ECR analyte, steady-state affinity model, pH 7.4.
Description: as §2
Assay [16] deals with T3, mEGFR ECR (His6-Avi-tagged). Description: SPR (Biacore T200), antibody captured, mEGFR ECR analyte, steady-state affinity model, pH 6.5.
Description: as §2
Assay [17] has the same target. Description: SPR (Biacore T200), antibody captured, mEGFR ECR analyte, steady-state affinity model, pH 7.4.
Description: as §2
For assay [18], the target named is T1, hEGFR ECR-His6-Avi-Biotin. Description: competition ELISA: hEGFR ECR on plate, IgG1 titrated in a mixture with EGF-mFc, bound EGF-mFc detected with anti-mFc-HRP; pH 6.5 [table].
The target of assay [19] is T1, hEGFR ECR-His6-Avi-Biotin. Description: competition ELISA: hEGFR ECR on plate, IgG1 titrated in a mixture with EGF-mFc, bound EGF-mFc detected with anti-mFc-HRP; pH 7.4 [table].
Assay [20] concerns the target T1, hEGFR ECR-His6-Avi-Biotin. Description: phage ELISA: biotinylated hEGFR ECR captured on streptavidin plate, phage display scFv titrated, anti-M13-HRP; pH 7.4.
Assay [21] deals with T1, hEGFR ECR-His6-Avi-Biotin. Description: ELISA: hEGFR ECR on plate, IgG1 titrated, anti-hFc-HRP; pH 6.0 [right panel].
Description: (§3) Then antibody-hEGFR binding was detected with an HRP-conjugated anti-hFc secondary antibody.
Assay [22] deals with T1, hEGFR ECR-His6-Avi-Biotin. Description: ELISA: hEGFR ECR on plate, IgG1 titrated, anti-hFc-HRP; pH 7.4 [right panel].
Description: as §3

Changes are numbered by the printed parent chain. Names and notes keep the numbering of the source.

B1: 14C07 (phage display scFv form) (scFv, V domains shown)
VH: QVQLVQSGAEVKRPGSSVKVSCKASGGTFSSYAISWVRQAPGQGLEWMGGIIPIFGTANYAQKFQGRVTITADESTSTAYMELSSLRSEDTAVYYCARDSSSGWYDYFDYWGQGTLVTVSS
VL: QPVLTQPPSVSAAPGAMARITCESPDIGSKSVQWYQQRPGQAPILVIYYDDDRPSGIPERFSGSNSGNTAALTINWVEPEDEADYYCQAWDDSDPVVFGGGTQLTVL
As for B1, the “EC50 (read off the curve)” value in assay [1] is ~1e+11 cfu/ml.

B2: G532^V (human IgG1 form) (antibody, V domains shown)
VH: QVQLVQSGAEVKRPGSSVKVSCKASGGISDGSAISWVRQAPGQGLEWMGGIRWWGGITNYAQKFQGRVTITADESTSTAYMELSSLRSEDTAVYYCARDSSLGYYDYFDYWGQGTLVTVSS
VL: QPVLTQPPSVSAAPGQTARITCGGNNIGEKHVQWYQQRPGQAPVLVIYYDSTRPSGIPERFSGSNSGNTAALTINSVEAGDEADYYCQAWDDYDPVVFGGGTQLTVLG
notes: G532 with LCDR1 E32H and LCDR2 D52S, D53T
Consider B2, for which, in assay [2], the “EC50 ratio (pH 7.4/pH 6.5)” value is 1.64 and the “fold lower binding pH-dependency than G532” value was ~5 fold. Moreover, the midpoint of the response in assay [3], the EC50, lay at 0.316 nM. In assay [4], the EC50 is 0.517 nM.

B3: WT G5V2 (phage display Fab form) (Fab, V domains shown)
VH: B2 VH with R52Y, W53F, W54F, G55N, I57N
VL: QPVLTQPPSVSAAPGQTARITCGGNNIGEKYVQWYQQRPGQAPVLVIYYDDDRPSGIPERFSGSNSGNTAALTINSVEAGDEADYYCQAWDDYDPVVFGGGTQLTVL
As to B3, the “EC50 ratio (pH 7.4/pH 6.5)” value in assay [5] was determined as 1.21.

B4: G532 (human IgG1 form) (antibody, V domains shown)
VH: B2 VH
VL: B2 VL with H31E, S51D, T52D
As for B4, the “EC50 ratio (pH 7.4/6.5)” value in assay [6] turned out to be 26; in [7] it was 19.4. The EC50 in assay [8] turned out to be 0.528 nM; in assay [9] it was 13.7 nM; in [10], 0.787 nM; in [11], 15.2 nM; in [3], 0.69 nM; in [4], 5.58 nM. The “EC50 ratio (pH 7.4/pH 6.5)” value in [2] was 8.08. The figures for the “KD ratio (pH 7.4/6.5)” value in assay [12] and in [13] were 13.3 and 3.31, respectively. Further, the dissociation constant Kd in assay [14] came to 294 nM; in assay [15], 3900 nM; in assay [16], 547 nM; in [17] it was 1810 nM. Further, the IC50 in assay [18] was 20.6 nM.

B5: G5V2 Y32H (phage display Fab form) (Fab, V domains shown)
VH: B2 VH with R52Y, W53F, W54F, G55N, I57N
VL: B3 VL with Y31H
notes: Kabat numbering (31st letter by plain count)
For B5, in assay [5], the “EC50 ratio (pH 7.4/pH 6.5)” value stood at 0.61.

B6: G532^Ctrl (human IgG1 form) (antibody, V domains shown)
VH: B2 VH
VL: B2 VL with K30N
notes: G532^V with LCDR1 K31N; also called non-pH-dependent variant of G532
B6: the “EC50 ratio (pH 7.4/6.5)” value stood at 0.718 in [6] and 0.469 in [7]. Further, the concentration for a half-maximal effect (EC50) was found to be 0.771 nM in assay [8]; 0.554 nM in assay [9]; 1.25 nM in assay [10]; 0.587 nM in assay [11]; 0.837 nM in assay [3]; 0.635 nM in [4]. The “EC50 ratio (pH 7.4/pH 6.5)” value in assay [2] stood at 0.759. Besides, the “KD ratio (pH 7.4/6.5)” value stood at 0.599 in assay [12] and 0.586 in assay [13]. Besides, the Kd in assay [14] was 406 nM; in [15] it was 243 nM; in [16], 1270 nM; in [17], 743 nM. For the same molecule, the IC50 in assay [18] was 39.5 nM; in [19] it was 61.8 nM.

B7: 11C04 (scFv, part only; not given: scFv linker, domain order, phage fusion, V domains shown, not shown: another chain or arm of the molecule; large carriers; small tags and cut ends)
VH: EVQLVQSGAEVKKPGASVKVSCKASGYTFTSYYMHWVRQAPGQGLEWMGIINPSGGSTSYAQKFQGRVTMTRDTSTSTVYMELSSLRSEDTAVYYCARDLEMAYYDILYGMDVWGQGTLVTVSS
VL: QSALTQPASVSGSAGQSITISCTGTTSDIGRYDYVSWYQQHPGQVPKLMIYDVSNRPSGVSDRFSGSKSGNTASLTISGLQTEDEADYYCSSYTTSGTRVFGGGTKLTVL
With B7, the EC50 (read off the curve) in assay [20] and in assay [1] was 1e+10 cfu/ml in each case.

B8: 11A10 (full-length human IgG1 form) (antibody, V domains shown)
VH: EVQLVQSGAEVKKPGESLMISCKGSGYSFTNHWIGWVRQMPGKGPEWMGIINPRDSDARYSPSFRGQVTFSVDRSTNTAYLQWTSLKPSDTGMYFCARRDIVVVPAATPSYYYYGMDVWGQGTTVTVSS
VL: DIQLTQSPSSLSASVGDSVTITCRPRQSSSRFVNWYQHKPGKAPKLLISNASDLQHGVPSRFSGRGAGTEFTLTIDSLQPDDVATYYCEQSYRFPHMFGQGTKVEIKR
On to B8, for which the EC50 in assay [21] came to 1.36 nM; in assay [22], 58.9 nM.

For the origin of these results see US20260242489A1 (HUAHUI HEALTH, published 2026).
